In US20200369755A1 (PROTHENA BIOSCIENCES, published 2020):
Where no end group is shown, it is not given here.

Assays:
Experiment in all cases: peptide ELISA, biotinylated peptide on streptavidin plate; background-subtracted absorbance; positive from 0.2
82-96 = molecular target: T1, 82-96 (also: biotinylated, site not given here)
T1 construct: also called tau peptide 82-96 (4R0N numbering)
T1 peptide: KKAKGADGKTKIATP
Procedure: (§1) Additional peptides were used to model potential post-translational modifications of the C- and N-terminal ends of the protein.
(§2) Biotinylated peptides were bound to separate wells of a streptavidin-coated ELISA plate. The plate was blocked and treated with murine 3D6, followed by incubation with a horseradish peroxidase-conjugated anti-mouse antibody. After thorough washing, OPD was applied to the plate and allowed to develop. The plate was read at 450 nm absorbance. Background subtraction was performed with absorbance values from wells containing no primary antibody, and a threshold for positive binding was set to 0.2 absorbance units. […] (FIG. 1)

127-141 = molecular target: T2, 127-141 (also: biotinylated, site not given here)
T2 peptide: SGEPPKSGDRSGYSS
Procedure: as §1, §2

181-195 = molecular target: T3, 181-195 (also: biotinylated, site not given here)
T3 peptide: AKSRLQTAPVPMPDL
Procedure: as §1, §2

289-303 = molecular target: T4, 289-303 (also: biotinylated, site not given here)
T4 construct: also called tau peptide 289-303 (4R0N numbering)
T4 peptide: KDRVQSKIGSLDNIT
Procedure: as §1, §2

316-330 = molecular target: T5, 316-330 (also: biotinylated, site not given here)
T5 construct: also called tau peptide 316-330 (4R0N numbering)
T5 peptide: HKLTFRENAKAKTDH
Procedure: as §1, §2

343-357 = molecular target: T6, 343-357 (also: biotinylated, site not given here)
T6 construct: also called tau peptide 343-357 (4R0N numbering)
T6 peptide: GDTSPRHLSNVSSTG
Procedure: as §1, §2

361-375 = molecular target: T7, 361-375 (also: biotinylated, site not given here)
T7 peptide: MVDSPQLATLADEVS
Procedure: as §1, §2

28-42 = molecular target: T8, 28-42 (also: biotinylated, site not given here)
T8 construct: also called tau peptide 28-42 (4R0N numbering)
T8 peptide: GYTMHQDQEGDTDAG
Procedure: as §1, §2

46-60 = molecular target: T9, 46-60 (also: biotinylated, site not given here)
T9 construct: also called tau peptide 46-60 (4R0N numbering)
T9 peptide: EEAGIGDTPSLEDEA
Procedure: as §1, §2

Measured: binding result

B1: murine 3D6 monoclonal antibody (antibody, IgG1, V domains shown)
VH: EVQLQQSGADLVRPGALVKLSCKASGFNIKDYYLHWVRQRPEQGLEWIGWIDPENGDTVYDPKFQGKATITADTSSNTAYLQLGSLTSEDTAVYFCSTLDFWGQGTTLTVSS
VL: not shown
notes: Hybridoma-derived mouse antibody; also called m3D6; mouse 3D6
no binding: 82-96 | 127-141 | 181-195 | 289-303 | 316-330 | 343-357 | 361-375 | 28-42 | 46-60
